These results are taken from PMC4385108, “Characterization of the Kluyveromyces marxianus strain DMB1 YGL157w gene product as a broad specificity NADPH-dependent aldehyde reductase” (AMB Express, 2015).

Substrate in data set [1]: CC(=O)C=O
Put plainly: purified protein. It is filed as biochemical, Kluyveromyces marxianus. Particulars: 100 mM acetate pH 5.5, 25°C, 0.2 mM NADPH.

Substrate in data set [2]: NC(=O)C1=CN([C@@H]2O[C@H](COP(=O)(O)OP(=O)(O)OC[C@H]3O[C@@H](n4cnc5c(N)ncnc54)[C@H](OP(=O)(O)O)[C@@H]3O)[C@@H](O)[C@H]2O)C=CC1
Put plainly: purified protein. The class given is biochemical, Kluyveromyces marxianus. Particulars: 100 mM acetate pH 5.5, 25°C, co-substrate methylglyoxal (5 mM in the standard assay), kcat unit as printed, presumably min^−1, varied: cofactor.

B1: KmGRE2 (YGL157w gene product) (Kluyveromyces marxianus) (protein)
chain: MTYVVVTGASGYLAQHVIKQLLERNYKVIGTVRNQQKAKDIAKLFQNDNLTLELVPDLLQADVFDDLFLKYTGQIKHVIHTASPCRFDTTEYENEMLLPAINGTKRVLESIKKYASETVETVVYTSSVSALANPAGILDSNLTLTEESWNPDSFEDGKKDVFSAYYVSKTFAERTAWDFWKENKDQVKFQLTTICPSYIFGPQAFEENAKGTLNFSTEIVNKILHSKPGDELDKNFAGAFVDVRDVARAHVLALEKPELKSKRLVLLNDVYALQDVADYINKHFPELRGKIATGVPGEGKEIVKYIAHYDNSKTKKLLGFEFISFGQAITDTVAQILKANN
notes: monomer, about 36 kDa by gel filtration, 40 kDa by SDS-PAGE
Take B1: in the data set “purified protein [1]”, the Michaelis constant (Km) amounted to 300 ± 18 µM and the kcat is given as 1.3 × 10^3 ± 15 min^−1. Further, in “purified protein [2]”, the Km was 28 ± 1.2 µM.
